The values that follow come from patent US20120230976.

For the series, the target named is mixture of gliadins (SIGMA Cat. No. G3375).

B1: neprilysin from Rothia mucilaginosa ATCC 25296 (RefSeq ZP_05367591) (protein)
chain: MTTNSGITKEWVDETVKPGDDFFRHVNGKWLATHEIPADRPKDGGLYTLRDNAEKHVRELVEKIAKEQPESRIGALYNSFMDVEKIEADGLEPLLKEIAPILNSATPSHLAVTLALLSRAGLPQLFAWYTSNDPKDPKNYTFFLYQSGLGLPDESYYREEKHEAACAAYVEHIARMFQLTGLAEGFGLTPEQAAQLVFTHESELARLHWNVVENRDAEATYNPYQATELDEKFPGFPFSQWLLALGADPETLGQVIVAQPSFFEGAAKLFTSIPLMSWKLWAVWTVLRSRAPFMYDELVQESFNFYGKTLSGTQQIRERWKRGVGAVEKALGEEIGQEYVAVHFPPSHKEKMLVLVGNLLEAYRESIESLDWMTEATRQKALEKLSKFVTKIGYPDKWRDFSALELVPGDLFENLRRTGAFDADWLIARKGQPVDKAEWLMTPQTVNAYYMPPANEIVFPAAILQPPYFNPDADDAANYGNIGMIIGHEIGHGFDDQGSRYDGDGKLESWWTEEDYAKFKERTAALVEQYNAYVPVGLDPKFHVNGELTLGENIGDLAGMSIALKAYRLALKKQGIESLADAPVIDGMTGIQRFFFSNARGWCTKSRPQHAEVMISVDPHSPDEFRVNGVVRNIDEFYEAFGVSEGDALYLAPEERVRIW
For the protein B1, the “gliadin zymography (proteolytic activity)” value is reported as “The clear bands observed in the zymogram gel confirmed proteolytic activity towards gliadin”.
